Results published in EP4681729A1 (Shanghai Mabgen Biotech Ltd., dated 2026).
Like-named read-outs stand apart in the source and are kept apart here.

Legend:
[1] = target: T1, human PVRIG expressed on cells (human, UniProt Q6DKI7 1-326); assay: cell-based or functional assay
T1 sequence (looked up): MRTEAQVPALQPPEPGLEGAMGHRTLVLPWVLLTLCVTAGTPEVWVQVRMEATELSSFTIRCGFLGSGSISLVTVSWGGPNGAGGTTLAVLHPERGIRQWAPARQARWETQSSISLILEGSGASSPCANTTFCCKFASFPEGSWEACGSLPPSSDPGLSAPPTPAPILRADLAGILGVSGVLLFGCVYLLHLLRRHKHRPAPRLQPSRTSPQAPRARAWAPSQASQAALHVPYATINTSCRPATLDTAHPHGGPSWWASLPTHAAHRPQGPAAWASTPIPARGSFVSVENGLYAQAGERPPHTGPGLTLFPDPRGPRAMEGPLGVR

[2] = target: T1, human PVRIG expressed on cells; assay: cell-based or functional assay; remark: listed apart in the source

PVRIG reporter gene cell activity EC50 [1]: 0.74 nM
PVRIG reporter gene cell activity EC50 [2]: 1.38 nM
B1: Tab5 (antibody, V domains shown)
VH: EVQLVESGGGVVKPGGSLRLSCAASGFTFGTSSMNWVRQAPGKGLEWVAVISFDGTEIHYADSVKGRFTISRDNSKSTVFLQMNSLRPDDTALYYCAKGSGNIYFYSGMDVWGQGTTVTVSS
VL: DIQMTQSPSTLSASVGDRVTITCRAGQSISGWLAWFQQKPGKAPNLLIYETSTLESGVPSRFSGSGSGTEYTLTISSLQPDDFATYYCQQYYSYPLTFGQGTKVEIKR
